B1: Peroxisome proliferator-activated receptor gamma coactivator 1-beta (Homo sapiens), Q86YN6 (parent)
chain: MAGNDCGALLDEELSSFFLNYLADTQGGGSGEEQLYADFPELDLSQLDASDFDSATCFGELQWCPENSETEPNQYSPDDSELFQIDSENEALLAELTKTLDDIPEDDVGLAAFPALDGGDALSCTSASPAPSSAPPSPAPEKPSAPAPEVDELSLLQKLLLATSYPTSSSDTQKEGTAWRQAGLRSKSQRPCVKADSTQDKKAPMMQSQSRSCTELHKHLTSAQCCLQDRGLQPPCLQSPRLPAKEDKEPGEDCPSPQPAPASPRDSLALGRADPGAPVSQEDMQAMVQLIRYMHTYCLPQRKLPPQTPEPLPKACSNPSQQVRSRPWSRHHSKASWAEFSILRELLAQDVLCDVSKPYRLATPVYASLTPRSRPRPPKDSQASPGRPSSVEEVRIAASPKSTGPRPSLRPLRLEVKREVRRPARLQQQEEEDEEEEEEEEEEEKEEEEEWGRKRPGRGLPWTKLGRKLESSVCPVRRSRRLNPELGPWLTFADEPLVPSEPQGALPSLCLAPKAYDVERELGSPTDEDSGQDQQLLRGPQIPALESPCESGCGDMDEDPSCPQLPPRDSPRCLMLALSQSDPTFGKKSFEQTLTVELCGTAGLTPPTTPPYKPTEEDPFKPDIKHSLGKEIALSLPSPEGLSLKATPGAAHKLPKKHPERSELLSHLRHATAQPASQAGQKRPFSCSFGDHDYCQVLRPEGVLQRKVLRSWEPSGVHLEDWPQQGAPWAEAQAPGREEDRSCDAGAPPKDSTLLRDHEIRASLTKHFGLLETALEEEDLASCKSPEYDTVFEDSSSSSGESSFLPEEEEEEGEEEEEDDEEEDSGVSPTCSDHCPYQSPPSKANRQLCSRSRSSSGSSPCHSWSPATRRNFRCESRGPCSDRTPSIRHARKRREKAIGEGRVVYIQNLSSDMSSRELKRRFEVFGEIEECEVLTRNRRGEKYGFITYRCSEHAALSLTKGAALRKRNEPSFQLSYGGLRHFCWPRYTDYDSNSEEALPASGKSKYEAMDFDSLLKEAQQSLH
B2: Estrogen receptor (Homo sapiens), P03372 (parent)
chain: MTMTLHTKASGMALLHQIQGNELEPLNRPQLKIPLERPLGEVYLDSSKPAVYNYPEGAAYEFNAAAAANAQVYGQTGLPYGPGSEAAAFGSNGLGGFPPLNSVSPSPLMLLHPPPQLSPFLQPHGQQVPYYLENEPSGYTVREAGPPAFYRPNSDNRRQGGRERLASTNDKGSMAMESAKETRYCAVCNDYASGYHYGVWSCEGCKAFFKRSIQGHNDYMCPATNQCTIDKNRRKSCQACRLRKCYEVGMMKGGIRKDRRGGRMLKHKRQRDDGEGRGEVGSAGDMRAANLWPSPLMIKRSKKNSLALSLTADQMVSALLDAEPPILYSEYDPTRPFSEASMMGLLTNLADRELVHMINWAKRVPGFVDLTLHDQVHLLECAWLEILMIGLVWRSMEHPGKLLFAPNLLLDRNQGKCVEGMVEIFDMLLATSSRFRMMNLQGEEFVCLKSIILLNSGVYTFLSSTLKSLEEKDHIHRVLDKITDTLIHLMAKAGLTLQQQHQRLAQLLLILSHIRHMSNKGMEHLYSMKCKNVVPLYDLLLEMLDAHRLHAPTSRGGASVEETDQSHLATAGSTSSHSLQKYYITGEAEGFPATV
partner: B1 chain

Variants of: B1
Conditions: with esr1_human ESR1, P03372

Variant | effect of a mutation on the interaction
L343A;L346A;L347A | decreasing interaction strength
L155A;L156A;L159A;L160A | decreasing interaction strength
L155A;L156A;L159A;L160A;L343A;L346A;L347A | disrupting interaction strength

Variants of: B2
Conditions: with prgc2_human PPARGC1B

Variant | effect of a mutation on the interaction
L539A;L540A | disrupting interaction strength

From IntAct's records for PubMed 11854298
